Reference: patent US20200095324A1 (POTENZA THERAPEUTICS, published 2020)

Experiments:
[1] = molecular target: T1, human TIGIT (human, UniProt Q495A1 22-141); assay: BLI (Octet), MAB10 captured on anti-human Fc sensors, monomeric wild type human TIGIT in solution
T1 construct: Expressed in HEK-293 cells and secreted as soluble protein; also called hTIGIT; monomeric wild type human TIGIT; not shown: His tag (purified on Ni-NTA, called 'human TIGIT HIS')
T1 sequence: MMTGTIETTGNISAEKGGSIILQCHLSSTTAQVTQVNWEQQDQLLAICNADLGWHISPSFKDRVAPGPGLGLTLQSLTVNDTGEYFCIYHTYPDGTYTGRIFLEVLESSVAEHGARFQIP
Procedure: (§1) To identify the epitope for MAB10 binding to human TIGIT, 18 alanine single point mutations were made. Proteins were expressed in HEK-293 cells, secreted as soluble protein, purified on Ni-NTA resin, and characterized by SDS-PAGE. Binding was assessed by Bio-Layer Interferometry (BLI) using the Octet platform. MAB10 was captured on anti-human Fc sensors, washed, and exposed to either monomeric wild type human TIGIT or to one of a selection of point mutants.

[2] = molecular target: T1, human TIGIT; assay: BLI (Octet), antibody captured on anti-human Fc sensors
Procedure: as §1
To identify the epitope for MAB2, MAB15, and MAB21 binding to human TIGIT, binding to 7 alanine single point mutations was assessed using BLI as described in the preceding paragraph.

[3] = molecular target: T1, human TIGIT; assay: complex formation, size exclusion chromatography and crystallisation
Procedure: The binding epitope of MAB10 was also identified through crystallographic studies. MAB10 Fab was complexed with human TIGIT, purified by size exclusion chromatography, and concentrated to 10 mg/ml. Crystals were grown out of 14% PEG4000, 0.1M MES pH 6, 10 mM β-nicotinamide adenine dinucleotide hydrate, 0.5% n-dodecyl-β-D-maltoside. X-ray data were collected at Argonne National Laboratories (GM/CA CAT 23ID-D) and processed using CCP4 (Collaborative Computational Project No. 4, Software for Macromolecular X-Ray Crystallography) and Phenix (Python-based Hierarchical ENvironment for Integrated Xtallography). TIGIT residues within a contact distance of 3.8 Å from the heavy and light chain were considered part of the binding epitope and include T55, Q56, L65, D72, L73, H76, I77, S78, P79 and H111.

| Binder | binding result [2] | other results |
| --- | --- | --- |
| MAB10 (antibody, human IgG4 S228P, kappa, V domains shown, also called MAB10-IgG4; anti-TIGIT antibody MAB10) VH: QVQLQESGPGLVKPSQTLSLTCTVSGGSIESGLYYWGWIRQPPGKGLEWIGSIYYSGSTYYNPSLKSRATISVDTSKNQFSLKLSSVTAADTAVYYCARDGVLALNKRSFDIWGQGTMVTVSS VL: EIVLTQSPGTLSLSPGERATLSCRASQSVSSSYLAWYQQKPGQAPRLLIYGASSRATGIPDRFSGSGSGTDFTLTISRLEPEDFAVYYCQQHTVRPPLTFGGGTKVEIKR |  | binding result [1]: binds |
| MAB2 (antibody, human IgG4 S228P, kappa, V domains shown, also called MAB2-IgG4) VH: QLQLQESGPGLVKPSETLSLTCTVSGGSISSSKYYWGWIRQPPGKGLEWIGSIYYSGSTFYNPSLKSRVTISVDTSKNQFSLKLSSVTAADTAVYYCARDANYYGSAWAFDPWGQGTLVTVSS VL: EIVLTQSPATLSLSPGERATLSCRASQSVSSYLAWYQQKPGQAPRLLIYDASNRATGIPARFSGSGSGTDFTLTISSLEPEDFAVYYCQQHFNLPTFGGGTKVEIKR | binds |  |
| MAB15 (antibody, human IgG4 S228P, kappa, V domains shown, also called MAB15-IgG4) VH: QVQLVQSGAEVKKPGASVKVSCKASGYTFREYYMHWVRQAPGQGLEWMGIINPSIGLTSYARKFQGRVTMTRDTSTSTVYMELSSLRSEDTAVYYCARGGRTTWIGAFDIWGQGTMVTVSS VL: EIVMTQSPATLSVSPGERATLSCRASQSVSSNLAWYQQKPGQAPRLLIYGASTRATGIPARFSGSGSGTEFTLTISSLQSEDFAVYYCQQYVVWPPLTFGGGTKVEIKR | binds |  |
| MAB21 (antibody, human IgG4 S228P, kappa, V domains shown, also called MAB21-IgG4) VH: QVQLVQSGAEVKKPGASVKVSCKASGYTFTSHYMGWVRQAPGQGLEWMGIINPSMGATSYTQKFRGRVTMTRDTSTSTVYMELSSLRSEDTAVYYCARLHVSGSYYPAYLDYWGQGTMVTVSS VL: EIVMTQSPATLSVSPGERATLSCRASQSVSSNLAWYQQKPGQAPRHLIYGASTRATGIPARFSGSGSGTEFTLTISSLQSEDFAVYYCQQYIVFPWTFGGGTKVEIKR | binds |  |
| MAB10 Fab (Fab, V domains shown, Fab of MAB10 used for crystallography) VH: QVQLQESGPGLVKPSQTLSLTCTVSGGSIESGLYYWGWIRQPPGKGLEWIGSIYYSGSTYYNPSLKSRATISVDTSKNQFSLKLSSVTAADTAVYYCARDGVLALNKRSFDIWGQGTMVTVSS VL: EIVLTQSPGTLSLSPGERATLSCRASQSVSSSYLAWYQQKPGQAPRLLIYGASSRATGIPDRFSGSGSGTDFTLTISRLEPEDFAVYYCQQHTVRPPLTFGGGTKVEIK |  | binding result [3]: binds |
